Measured values from the supplement of paper PMC9233669.
This sample holds only a part of the variants without activity.

Experiments:
biotinyl-Leu-oxazolone = assay: self-aminoacylation, catalytic enhancement (BLO) (fold over background); higher = more active; k-Seq, kA / k0A0; sequences stand for … in GGGAAUGGAUCCACAUCUACGAAUUC…UUCACUGCAGACUUGACGAAGCUG
Method in brief: (§1)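 Mutagenized RNA pools (0.43 μM; 21-nt variable region) were treated with 2–1250 μM of each biotinyl-aminoacyl-oxazolone. Conditions were 50 μL HEPES/NaCl/KCl/MgCl2/CaCl2 buffer, 5% acetonitrile, pH 6.9–7.0, room temperature, 90 minutes. Catalytic enhancement, the median kA relative to the uncatalyzed rate, was derived from streptavidin capture, qPCR and Illumina sequencing.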

biotinyl-Val-oxazolone = assay: self-aminoacylation, catalytic enhancement (BVO) (fold over background); higher = more active; k-Seq, kA / k0A0; sequences stand for … in GGGAAUGGAUCCACAUCUACGAAUUC…UUCACUGCAGACUUGACGAAGCUG
Method in brief: as §1

biotinyl-Ile-oxazolone = assay: self-aminoacylation, catalytic enhancement (BIO) (fold over background); higher = more active; k-Seq, kA / k0A0; sequences stand for … in GGGAAUGGAUCCACAUCUACGAAUUC…UUCACUGCAGACUUGACGAAGCUG
Method in brief: as §1

biotinyl-Trp-oxazolone = assay: self-aminoacylation, catalytic enhancement (BWO) (fold over background); higher = more active; k-Seq, kA / k0A0; sequences stand for … in GGGAAUGGAUCCACAUCUACGAAUUC…UUCACUGCAGACUUGACGAAGCUG
Method in brief: as §1

biotinyl-Phe-oxazolone = assay: self-aminoacylation, catalytic enhancement (BFO) (fold over background); higher = more active; k-Seq, kA / k0A0; sequences stand for … in GGGAAUGGAUCCACAUCUACGAAUUC…UUCACUGCAGACUUGACGAAGCUG
Method in brief: as §1

biotinyl-Met-oxazolone = assay: self-aminoacylation, catalytic enhancement (BMO) (fold over background); higher = more active; k-Seq, kA / k0A0; sequences stand for … in GGGAAUGGAUCCACAUCUACGAAUUC…UUCACUGCAGACUUGACGAAGCUG
Method in brief: as §1

| Sequence | self-aminoacylation (biotinyl-Leu-oxazolone) | self-aminoacylation (biotinyl-Val-oxazolone) | self-aminoacylation (biotinyl-Ile-oxazolone) | self-aminoacylation (biotinyl-Trp-oxazolone) | self-aminoacylation (biotinyl-Phe-oxazolone) | self-aminoacylation (biotinyl-Met-oxazolone) |
| --- | --- | --- | --- | --- | --- | --- |
| AUUACCAUGGUCAUCGCGUGA [Fam2.1 aminoacylation ribozyme variant] | 25.2 | 12.1 | 10.3 | 26.7 | 189 | 24.6 |
| AUUACCAUGGUCCUCGAGUGA [Fam2.1 aminoacylation ribozyme variant] | 5.83 | 2.68 | 2.48 | 4.82 | 29.3 | 4.88 |
| AUUACCCAGGUCAUCAAGUGA [Fam2.1 aminoacylation ribozyme variant] | 1.97 | 1.59 | 1.47 | 2.63 | 3.35 | 1.97 |
| AUUACCCAGGUCAUCGACUGA [Fam2.1 aminoacylation ribozyme variant] | 0.746 | 1.03 | 0.847 | 0.9 | 0.774 | 0.743 |
| AUUACCCAGGUCAUCGAGUUA [Fam2.1 aminoacylation ribozyme variant] | 0.915 | 1 | 1.01 | 1.32 | 1.39 | 0.882 |
| AUUACCCAGGUCAUGGAGUGA [Fam2.1 aminoacylation ribozyme variant] | 4.67 | 3.01 | 2.85 | 4.7 | 8.43 | 3.83 |
| AUUACCCAGGUUAUCGAGUGA [Fam2.1 aminoacylation ribozyme variant] | 9.68 | 4.25 | 3.94 | 11.6 | 50.4 | 9.6 |
| AUUACCCCAGUCAUCGAGUGA [Fam2.1 aminoacylation ribozyme variant] | 4.88 | 3.25 | 2.92 | 6.76 | 24.9 | 6.05 |
| AUUACCCCGGUCAACGAGUGA [Fam2.1 aminoacylation ribozyme variant] | 4.74 | 3.47 | 3.08 | 6.44 | 28.2 | 5.86 |
| AUUACCCCGGUCAUCGGGUGA [Fam2.1 aminoacylation ribozyme variant] | 15.9 | 7.32 | 5.57 | 12.7 | 103 | 14.4 |
| AUUACCCCGGUCAUUGAGUGA [Fam2.1 aminoacylation ribozyme variant] | 6.53 | 3.79 | 3.22 | 8.47 | 43.9 | 7.29 |
| AUUACCCGAGUCAUCGAGUGA [Fam2.1 aminoacylation ribozyme variant] | 8.84 | 4.68 | 4.27 | 10.2 | 62.6 | 8.55 |
| AUUACCCGGAUCAUCGAGUGA [Fam2.1 aminoacylation ribozyme variant] | 7.92 | 4.04 | 3.43 | 7.26 | 38.4 | 7.04 |
| AUUACCCGGGUCAGCGAGUGA [Fam2.1 aminoacylation ribozyme variant] | 7.97 | 5.24 | 5.75 | 10.2 | 55.5 | 8.03 |
| AUUACCCGGGUCAUCGAGUGG [Fam2.1 aminoacylation ribozyme variant] | 1.92 | 1.81 | 1.25 | 2.45 | 10.1 | 1.63 |
| AUUACCCGGGUCAUCUAGUGA [Fam2.1 aminoacylation ribozyme variant] | 11 | 5.08 | 4.46 | 11.2 | 70.8 | 9.33 |
| AUUACCCGGGUCAUGGAGUGA [Fam2.1 aminoacylation ribozyme variant] | 4.59 | 2.87 | 2.82 | 4.98 | 25.8 | 4.26 |
| AUUACCCGGGUCCUCGAGUGA [Fam2.1 aminoacylation ribozyme variant] | 7.78 | 3.84 | 3.5 | 7.11 | 47.4 | 5.42 |
| AUUACCCUAGUCAUCGAAUGA [Fam2.1 aminoacylation ribozyme variant] | 0.924 | 1.06 | 0.919 | 0.469 | 0.87 | 1.02 |
| AUUACCCUAGUCAUCGAGUUA [Fam2.1 aminoacylation ribozyme variant] | 0.9 | 1.17 | 0.922 | 0.53 | 1.05 | 0.978 |
| AUUACCCUAGUCCUCGAGUGA [Fam2.1 aminoacylation ribozyme variant] | 3.93 | 2.34 | 2.2 | 4.08 | 15.9 | 4.15 |
| AUUACCCUAGUCUUCGAGUGA [Fam2.1 aminoacylation ribozyme variant] | 5 | 3.22 | 3.09 | 7.87 | 24.6 | 5.54 |

| Sequence | self-aminoacylation (biotinyl-Leu-oxazolone) | self-aminoacylation (biotinyl-Val-oxazolone) | self-aminoacylation (biotinyl-Ile-oxazolone) | self-aminoacylation (biotinyl-Trp-oxazolone) | self-aminoacylation (biotinyl-Phe-oxazolone) | self-aminoacylation (biotinyl-Met-oxazolone) |
| --- | --- | --- | --- | --- | --- | --- |
| AUUACCCUAUUCAUCGAGUGA [Fam2.1 aminoacylation ribozyme variant] | 4.15 | 2.66 | 2.37 | 6.86 | 17.3 | 4.25 |
| AUUACCCUCAUCAUCGAGUGA [Fam2.1 aminoacylation ribozyme variant] | 10.7 | 5.02 | 4.69 | 11.9 | 74.1 | 10.5 |
| AUUACCCUCGCCAUCGAGUGA [Fam2.1 aminoacylation ribozyme variant] | 7.31 | 3.97 | 3.71 | 8.23 | 41.1 | 6.67 |
| AUUACCCUCGUCAUCGAGUGU [Fam2.1 aminoacylation ribozyme variant] | 2 | 1.4 | 1.34 | 1.49 | 1.56 | 1.88 |
| AUUACCCUGACCAUCGAGUGA [Fam2.1 aminoacylation ribozyme variant] | 4.95 | 2.95 | 3.01 | 5.06 | 8.94 | 4.2 |
| AUUACCCUGAGCAUCGAGUGA [Fam2.1 aminoacylation ribozyme variant] | 3.99 | 2.45 | 2.06 | 4.96 | 8.97 | 4.43 |
| AUUACCCUGAUAAUCGAGUGA [Fam2.1 aminoacylation ribozyme variant] | 10.3 | 4.59 | 4.12 | 11.1 | 39.8 | 9.64 |
| AUUACCCUGAUCAUCGAGAGA [Fam2.1 aminoacylation ribozyme variant] | 0.765 | 0.913 | 1.02 | 0.629 | 0.905 | 0.577 |
| AUUACCCUGAUCAUCGAGGGA [Fam2.1 aminoacylation ribozyme variant] | 1.87 | 1.21 | 1.09 | 2.33 | 0.999 | 1.02 |
| AUUACCCUGCGCAUCGAGUGA [Fam2.1 aminoacylation ribozyme variant] | 5.76 | 2.56 | 2.03 | 6.75 | 20.5 | 5.86 |
| AUUACCCUGCUCAACGAGUGA [Fam2.1 aminoacylation ribozyme variant] | 5.59 | 3.25 | 2.33 | 6.69 | 24.7 | 5.64 |
| AUUACCCUGCUCACCGAGUGA [Fam2.1 aminoacylation ribozyme variant] | 6.12 | 3.35 | 2.76 | 6.29 | 39 | 5.34 |
| AUUACCCUGCUCAUCGACUGA [Fam2.1 aminoacylation ribozyme variant] | 0.475 | 0.82 | 0.856 | 0.534 | 0.34 | 0.687 |
| AUUACCCUGCUCAUCGAGAGA [Fam2.1 aminoacylation ribozyme variant] | 0.702 | 0.975 | 0.834 | 0.698 | 0.77 | 0.805 |
| AUUACCCUGCUCAUCGAGUGU [Fam2.1 aminoacylation ribozyme variant] | 0.916 | 0.78 | 0.991 | 1.36 | 1.08 | 1 |
| AUUACCCUGGACAUAGAGUGA [Fam2.1 aminoacylation ribozyme variant] | 15 | 6.12 | 6.45 | 15.6 | 100 | 15.5 |
| AUUACCCUGGACAUCGAGCGA [Fam2.1 aminoacylation ribozyme variant] | 1.26 | 1.07 | 1.24 | 1.34 | 1.24 | 1.45 |
| AUUACCCUGGACAUCGAGUGU [Fam2.1 aminoacylation ribozyme variant] | 3.35 | 2.66 | 1.51 | 4.38 | 5.95 | 3.35 |
| AUUACCCUGGCCACCGAGUGA [Fam2.1 aminoacylation ribozyme variant] | 5.59 | 3.34 | 2.92 | 3.89 | 35.6 | 4.99 |
| AUUACCCUGGCCAUAGAGUGA [Fam2.1 aminoacylation ribozyme variant] | 4.73 | 2.51 | 2.6 | 6.32 | 5.34 | 4.15 |
| AUUACCCUGGCCAUCAAGUGA [Fam2.1 aminoacylation ribozyme variant] | 0.968 | 1.01 | 0.983 | 1.67 | 1.1 | 1.07 |
